Source: patent publication US20190314526A1

Columns and labels:
Assay in all cases: cell-based or functional assay
[1] = molecular target: AAV-2 capsid mutant G128A (rAAV-2 virion) (AAV-2) (UniProt P03135)
[2] = molecular target: AAV-2 capsid mutant T413K (rAAV-2 virion) (AAV-2) (UniProt P03135)
[3] = molecular target: AAV-2 capsid mutant K569A (rAAV-2 virion) (AAV-2) (UniProt P03135)
[4] = molecular target: AAV-2 capsid mutant W365A (rAAV-2 virion) (AAV-2) (UniProt P03135)
[5] = molecular target: AAV-2 capsid mutant K395A (rAAV-2 virion) (AAV-2) (UniProt P03135)
[6] = molecular target: AAV-2 capsid mutant S130T (rAAV-2 virion) (AAV-2) (UniProt P03135)
[7] = molecular target: AAV-2 capsid mutant N568A (rAAV-2 virion) (AAV-2) (UniProt P03135)
[8] = molecular target: AAV-2 capsid mutant G375P (rAAV-2 virion) (AAV-2) (UniProt P03135)
[9] = molecular target: AAV-2 capsid mutant R334A (rAAV-2 virion) (AAV-2) (UniProt P03135)
[10] = molecular target: AAV-2 with a wild-type capsid (rAAV-2 virion) (AAV-2) (UniProt P03135)
[11] = molecular target: AAV-2 capsid mutant E418A (rAAV-2 virion) (AAV-2) (UniProt P03135)
[12] = molecular target: AAV-2 capsid mutant G449A (rAAV-2 virion) (AAV-2) (UniProt P03135)
[13] = molecular target: AAV-2 capsid mutant D357E (rAAV-2 virion) (AAV-2) (UniProt P03135)
[14] = molecular target: AAV-2 capsid mutant R334A/N568A (rAAV-2 virion) (AAV-2) (UniProt P03135)
[15] = molecular target: AAV-2 capsid mutant K390A (rAAV-2 virion) (AAV-2) (UniProt P03135)
[16] = molecular target: AAV-2 capsid mutant E394K (rAAV-2 virion) (AAV-2) (UniProt P03135)
[17] = molecular target: AAV-2 capsid mutant T354A (rAAV-2 virion) (AAV-2) (UniProt P03135)
[18] = molecular target: AAV-2 capsid mutant V571K (rAAV-2 virion) (AAV-2) (UniProt P03135)
[19] = molecular target: AAV-2 capsid mutant S127A (rAAV-2 virion) (AAV-2) (UniProt P03135)
[20] = molecular target: AAV-2 capsid mutant H372K (rAAV-2 virion) (AAV-2) (UniProt P03135)
[21] = molecular target: AAV-2 capsid mutant G449A/N568A (rAAV-2 virion) (AAV-2) (UniProt P03135)
[22] = molecular target: AAV-2 capsid mutant N360H/S361A (rAAV-2 virion) (AAV-2) (UniProt P03135)
[23] = molecular target: AAV-2 capsid mutant S130A (rAAV-2 virion) (AAV-2) (UniProt P03135)
[24] = molecular target: AAV-2 capsid mutant D377A (rAAV-2 virion) (AAV-2) (UniProt P03135)
[25] = molecular target: AAV-2 capsid mutant H134Q (rAAV-2 virion) (AAV-2) (UniProt P03135)
[26] = molecular target: AAV-2 capsid mutant K407A (rAAV-2 virion) (AAV-2) (UniProt P03135)
[27] = molecular target: AAV-2 capsid mutant V571A (rAAV-2 virion) (AAV-2) (UniProt P03135)
[28] = molecular target: AAV-2 capsid mutant N568A/V571A (rAAV-2 virion) (AAV-2) (UniProt P03135)
[29] = molecular target: AAV-2 capsid mutant Q452A (rAAV-2 virion) (AAV-2) (UniProt P03135)
[30] = molecular target: AAV-2 capsid mutant D357N (rAAV-2 virion) (AAV-2) (UniProt P03135)
[31] = molecular target: AAV-2 capsid mutant E394A (rAAV-2 virion) (AAV-2) (UniProt P03135)
[32] = molecular target: AAV-2 capsid mutant Q438A (rAAV-2 virion) (AAV-2) (UniProt P03135)
[33] = molecular target: AAV-2 capsid mutant E437A (rAAV-2 virion) (AAV-2) (UniProt P03135)
[34] = molecular target: AAV-2 capsid mutant E411A/T413A/G449A/N450A/N568A/V571A (rAAV-2 virion) (AAV-2) (UniProt P03135)
[35] = molecular target: AAV-2 capsid mutant F396A (rAAV-2 virion) (AAV-2) (UniProt P03135)
[36] = molecular target: AAV-2 capsid mutant N133A (rAAV-2 virion) (AAV-2) (UniProt P03135)
[37] = molecular target: AAV-2 capsid mutant R334A/G449A/N568A (rAAV-2 virion) (AAV-2) (UniProt P03135)
[38] = molecular target: AAV-2 capsid mutant R334A/G449A (rAAV-2 virion) (AAV-2) (UniProt P03135)
[39] = molecular target: AAV-2 capsid mutant N450A (rAAV-2 virion) (AAV-2) (UniProt P03135)
[40] = molecular target: AAV-2 capsid mutant R448K (rAAV-2 virion) (AAV-2) (UniProt P03135)

purified human IgG from >10,000 donors (Panglobulin, ZLB Bioplasma AG)
Fold decrease in neutralizing titer [1]: 4.1 fold
Fold decrease in neutralizing titer [2]: 2.6 fold
Fold decrease in neutralizing titer [3]: 4 fold
Fold decrease in neutralizing titer [4]: 10.4 fold
Fold decrease in neutralizing titer [5]: 4.9 fold
Fold decrease in neutralizing titer [6]: 1.8 fold
Fold decrease in neutralizing titer [7]: 2 fold
Fold decrease in neutralizing titer [8]: 1.9 fold
Fold decrease in neutralizing titer [9]: 2.2 fold
Fold decrease in neutralizing titer [10]: 1 fold
Fold decrease in neutralizing titer [11]: 1.5 fold
Fold decrease in neutralizing titer [12]: 2.5 fold
Fold decrease in neutralizing titer [13]: 1.7 fold
Fold decrease in neutralizing titer [14]: 2.4 fold
Fold decrease in neutralizing titer [15]: 2.3 fold
Fold decrease in neutralizing titer [16]: 2.3 fold
Fold decrease in neutralizing titer [17]: 2.9 fold
Fold decrease in neutralizing titer [18]: 1 fold
Fold decrease in neutralizing titer [19]: 2.2 fold
Fold decrease in neutralizing titer [20]: 1.1 fold
Fold decrease in neutralizing titer [21]: 1.7 fold
Fold decrease in neutralizing titer [22]: 2.1 fold
Fold decrease in neutralizing titer [23]: 1.4 fold
Fold decrease in neutralizing titer [24]: 1.9 fold
Fold decrease in neutralizing titer [25]: 1.5 fold
Fold decrease in neutralizing titer [26]: 3.3 fold
Fold decrease in neutralizing titer [27]: 3.9 fold
Fold decrease in neutralizing titer [28]: 2.5 fold
Fold decrease in neutralizing titer [29]: 1.3 fold
Fold decrease in neutralizing titer [30]: 1.8 fold
Fold decrease in neutralizing titer [31]: 1.5 fold
Fold decrease in neutralizing titer [32]: 1.3 fold
Fold decrease in neutralizing titer [33]: 2 fold
Fold decrease in neutralizing titer [34]: 1.3 fold
Fold decrease in neutralizing titer [35]: 1.6 fold
Fold decrease in neutralizing titer [36]: 0.9 fold
Fold decrease in neutralizing titer [37]: 3 fold
Fold decrease in neutralizing titer [38]: 3.9 fold
Fold decrease in neutralizing titer [39]: 1.6 fold
Fold decrease in neutralizing titer [40]: 1 fold
